Source: PMC3832242

Biological target: linked SSB dimer with the D. radiodurans linker (SSB-LD-Drl) (E. coli | D. radiodurans)
Assay: AUC

## linked SSB dimer with the D. radiodurans linker (SSB-LD-Drl)
  stoichiometry N: 2
